From paper PMC7755911 (Scientific Reports, 2020) come the findings set out here.

Holding throughout (details): both partners purified
The target in assay [1] is SARS-CoV-2 Receptor Binding Domain (RBD) (SARS-CoV-2, UniProt P0DTC2). In words: SPR. (In general: SPR reads the build-up and loss of mass on a sensor chip optically.)
Assay [2] addresses T1, Horse radish peroxidase conjugated RBD (GenScript SARS-CoV-2 Neutralization Antibody Detection Kit) (SARS-CoV-2, UniProt P0DTC2).
T1 construct: source: bought: GenScript (kit L00847)
Kind of assay: ELISA. For orientation: An ELISA detects its analyte on a solid surface through an enzyme-linked reagent.

Assay [3] has as its target SARS-CoV-2 RBD (cross-reactivity experiments) (SARS-CoV-2, UniProt P0DTC2). Kind of assay: ELISA.
In assay [4] the target is Biotinylated SARS-CoV-2 S protein RBD with a C-terminal AviTag (SARS-CoV-2, canonical (Wuhan-Hu-1) …, UniProt P0DTC2, biotinylated). Kind of assay: BLI. Background: Biolayer interferometry detects binding as a change in optical thickness at a sensor tip.

B1: NIH-CoVnb-112 (VHH)
VHH: DVQLQESGGGLVQPGGSLRLSCAASGLTLDYYAIGWFRQAPGKEREGVSCISSSDGSTYYADSVKGRFTTSRDNAKNTVYLQMNSLKPEDTAVYYCAAVPSTYYSGTYYYTCHPGGMDYWGKGTQVTVSS
notes: also called lead nanobody candidate; anti-SARS-CoV-2 RBD nanobody; source: E. coli BL21 (DE3), periplasm by osmotic shock, purified (HisTrap, Superdex 75)
On to B1, for which the Kd (as a rule, the constant that tells how readily two partners part at equilibrium) in assay [1] came to 2.1 nM. In addition, the binding result in assay [2] and in assay [3] was “binds” in each case.

B2: VHH72 (VHH)
VHH: QVQLQESGGGLVQAGGSLRLSCAASGRTFSEYAMGWFRQAPGKEREFVATISWSGGSTYYTDSVKGRFTISRDNAKNTVYLQMNSLKPDDTAVYYCAAAGLGTVVSEWDYDYDYWGQGTQVTVSS
For the molecule B2, the binding result in assay [4] is listed as “binds”.
